From patent publication US20230374151A1 (GlaxoSmithKline, published 2023)
Where “and” joins values, the source holds several entries; their conditions need not be identical. Identical values can stand only once.

Legend:
[1] = biological target: T1, MUC1 peptide (non-glycosylated), biotinylated (N-terminal Biotin-PEG2; C-terminal amide); assay: Octet BLI, biotinylated peptide on streptavidin sensors
T1 construct: also called 36-4; 7-36-4
T1 peptide: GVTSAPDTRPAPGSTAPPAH
Procedure: Biotinylated MUC1 peptide (7-36-4) and TnMUC1 peptide (7-36-2) were diluted to 10 μg/ml in Octet Running Buffer (1×PBSF) and loaded onto Octet SA (streptavidin) sensors. The positive control proteins were tested in the Octet assay at a single concentration of 500 nM. All humanised anti-Tn MUC1 scFv expression supernatants were assayed neat.
Data was analysed using the data acquisition software fortéBIO version 8.0.2.5 and the data analysis software fortéBIO version 8.0.2.3.

[2] = biological target: T2, TnMUC1 peptide (fully glycosylated), biotinylated; assay: SPR (Biacore T200), peptide 36-2 on CAP chip, scFv as analyte, 1:1 fit; average
T2 construct: Two batches (36-2 and 65-1) of the same peptide; also called 36-2; 7-36-2
Procedure: (§1) Biotin CAPture Reagent was captured onto the active and reference flow cells for 300 seconds at 2 μl/min. The biotinylated peptides were diluted in BIAcore Running Buffer (as described above) and captured onto the active flow cell only, at a flow rate of 10 μl/min to obtain the capture level calculated in the equation detailed above.
(§2) The humanised anti-TnMUC1 scFv proteins were passed over the reference and active flow cells at 500, 125, 31.25, 7.8, 1.9, 0 nM for binding to TnMUC1 and MUC1 peptides with a 300 second association followed by a 900 seconds dissociation with BIAcore Running Buffer at a flow rate of 30 μl/min.
(§3) BIAcore T200 Evaluation Software v3.0 was used to analyse the data. The data obtained has been fitted to a 1:1 binding model with the Rmax parameter set to local. As this is a capture experiment, a local Rmax parameter would be truly reflective as the protein is recaptured every time and theoretically surface is slightly different at each recapture, possibly producing slightly different capture each time. Kinetic Parameters (KD, kd and kₐ) were calculated for all the humanised anti-TnMUC1 scFv proteins.

[3] = biological target: T2, TnMUC1 peptide (fully glycosylated), …; assay: SPR (Biacore T200), peptide 36-2 on CAP chip, scFv as analyte, 1:1 fit; single run
Procedure: as §1, §2, §3

[4] = biological target: T2, TnMUC1 peptide (fully glycosylated), …; assay: SPR (Biacore T200), peptide 36-2 on CAP chip, scFv as analyte, 1:1 fit; average, restated in nM
Procedure: as §1, §2, §3

[5] = biological target: T1, MUC1 peptide (non-glycosylated), …; assay: SPR (Biacore T200), biotinylated peptide on CAP chip, scFv as analyte

B1: humanised anti-TnMUC1 scFv H3-L3, VH-VL orientation (construct 6D25) (scFv)
scFv: QVQLVQSGAEVKKPGSSVKVSCKASGYTFTDHAIHWVRQAPGQGLEWMGHFSPGNTDIKYNDKFKGRVTITADKSTSTAYMELSSLRSEDTAVYYCKTSTFFFDYWGQGTTVTVSSGGGGSGGGGSGGGGSGGGGSELVMTQSPDSLAVSLGERATINCKSSQSLLNSGDQKNYLTWYQQKPGQPPKLLIFWASTRESGVPDRFSGSGSGTDFTLTISSLQAEDVAVYYCQNDYSYPLTFGQGTKLEIKAAAHHHHHHH
B1: no binding (tested: neat supernatant) [1].

B2: humanised anti-TnMUC1 scFv L2-H1 (construct 6D14) (scFv)
scFv: DIVMTQSPDSLAVSLGERATINCKSSQSLLNSGDQKNYLTWYQQKPGQPPKLLIFWASTRESGVPDRFSGSGSGTDFTLTISSLQAEDVAVYYCQNDYSYPLTFGQGTKLEIKGGGGSGGGGSGGGGSGGGGSQVQLVQSGAEVKKPGSSVKVSCKASGYTFTDHAIHWVRQAPGQGLEWMGHFSPGNTDIKYNDKFKGRVTITADKSTSTAYMELSSLRSEDTAVYYCARSTFFFDYWGQGTTVTVSSAAAHHHHHH
B2: no binding (tested: neat supernatant) [1].

B3: humanised anti-TnMUC1 scFv L1-H2 (construct 6D9) (scFv)
scFv: ELVMTQSPDSLAVSLGERATINCKSSQSLLNSGDQKNYLTWYQQKPGQPPKLLIYWASTRESGVPDRFSGSGSGTDFTLTISSLQAEDVAVYYCQNDYSYPLTFGQGTKLEIKGGGGSGGGGSGGGGSGGGGSQVQLVQSGAEVKKPGSSVKVSCKASGYTFTDHAIHWVRQAPGQGLEWIGHFSPGNTDIKYNDKFKGRATLTVDRSTSTAYMELSSLRSEDTAVYYCARSTFFFDYWGQGTTVTVSSAAAHHHHHH
B3: no binding (tested: neat supernatant) [1].

B4: humanised anti-TnMUC1 scFv L2-H4 (construct 6D17) (scFv)
scFv: DIVMTQSPDSLAVSLGERATINCKSSQSLLNSGDQKNYLTWYQQKPGQPPKLLIFWASTRESGVPDRFSGSGSGTDFTLTISSLQAEDVAVYYCQNDYSYPLTFGQGTKLEIKGGGGSGGGGSGGGGSGGGGSQVQLVQSGAEVKKPGSSVKVSCKASGYTFTDHAIHWVRQAPGQGLEWMGHFSPGNTDIKYNDKFKGRVTITADKSTSTAYMELSSLRSEDTAVYFCARSTFFFDYWGQGTTVTVSSAAAHHHHHH
B4: no binding (tested: neat supernatant) [1].

B5: humanised anti-TnMUC1 scFv L3-H4 (construct 6D23) (scFv)
scFv: ELVMTQSPDSLAVSLGERATINCKSSQSLLNSGDQKNYLTWYQQKPGQPPKLLIFWASTRESGVPDRFSGSGSGTDFTLTISSLQAEDVAVYYCQNDYSYPLTFGQGTKLEIKGGGGSGGGGSGGGGSGGGGSQVQLVQSGAEVKKPGSSVKVSCKASGYTFTDHAIHWVRQAPGQGLEWMGHFSPGNTDIKYNDKFKGRVTITADKSTSTAYMELSSLRSEDTAVYFCARSTFFFDYWGQGTTVTVSSAAAHHHHHH
B5: no binding (tested: neat supernatant) [1].

B6: humanised anti-TnMUC1 scFv L0-H2 (construct 6D3) (scFv)
scFv: DIVMTQSPDSLAVSLGERATINCKSSQSLLNSGDQKNYLTWYQQKPGQPPKLLIYWASTRESGVPDRFSGSGSGTDFTLTISSLQAEDVAVYYCQNDYSYPLTFGQGTKLEIKGGGGSGGGGSGGGGSGGGGSQVQLVQSGAEVKKPGSSVKVSCKASGYTFTDHAIHWVRQAPGQGLEWIGHFSPGNTDIKYNDKFKGRATLTVDRSTSTAYMELSSLRSEDTAVYYCARSTFFFDYWGQGTTVTVSSAAAHHHHHH
B6: no binding (tested: neat supernatant) [1].

B7: humanised anti-TnMUC1 scFv L3-H3 (construct 6D22) (scFv)
scFv: ELVMTQSPDSLAVSLGERATINCKSSQSLLNSGDQKNYLTWYQQKPGQPPKLLIFWASTRESGVPDRFSGSGSGTDFTLTISSLQAEDVAVYYCQNDYSYPLTFGQGTKLEIKGGGGSGGGGSGGGGSGGGGSQVQLVQSGAEVKKPGSSVKVSCKASGYTFTDHAIHWVRQAPGQGLEWMGHFSPGNTDIKYNDKFKGRVTITADKSTSTAYMELSSLRSEDTAVYYCKTSTFFFDYWGQGTTVTVSSAAAHHHHHH
B7: no binding (tested: neat supernatant) [1].

B8: humanised anti-TnMUC1 scFv L1-H1 (construct 6D8) (scFv)
scFv: ELVMTQSPDSLAVSLGERATINCKSSQSLLNSGDQKNYLTWYQQKPGQPPKLLIYWASTRESGVPDRFSGSGSGTDFTLTISSLQAEDVAVYYCQNDYSYPLTFGQGTKLEIKGGGGSGGGGSGGGGSGGGGSQVQLVQSGAEVKKPGSSVKVSCKASGYTFTDHAIHWVRQAPGQGLEWMGHFSPGNTDIKYNDKFKGRVTITADKSTSTAYMELSSLRSEDTAVYYCARSTFFFDYWGQGTTVTVSSAAAHHHHHH
B8: no binding (tested: neat supernatant) [1].

B9: humanised anti-TnMUC1 scFv L3-H1 (construct 6D20) (scFv)
scFv: ELVMTQSPDSLAVSLGERATINCKSSQSLLNSGDQKNYLTWYQQKPGQPPKLLIFWASTRESGVPDRFSGSGSGTDFTLTISSLQAEDVAVYYCQNDYSYPLTFGQGTKLEIKGGGGSGGGGSGGGGSGGGGSQVQLVQSGAEVKKPGSSVKVSCKASGYTFTDHAIHWVRQAPGQGLEWMGHFSPGNTDIKYNDKFKGRVTITADKSTSTAYMELSSLRSEDTAVYYCARSTFFFDYWGQGTTVTVSSAAAHHHHHH
B9: no binding (tested: neat supernatant) [1].

B10: humanised anti-TnMUC1 scFv L0-H1 (construct 6D2) (scFv)
scFv: DIVMTQSPDSLAVSLGERATINCKSSQSLLNSGDQKNYLTWYQQKPGQPPKLLIYWASTRESGVPDRFSGSGSGTDFTLTISSLQAEDVAVYYCQNDYSYPLTFGQGTKLEIKGGGGSGGGGSGGGGSGGGGSQVQLVQSGAEVKKPGSSVKVSCKASGYTFTDHAIHWVRQAPGQGLEWMGHFSPGNTDIKYNDKFKGRVTITADKSTSTAYMELSSLRSEDTAVYYCARSTFFFDYWGQGTTVTVSSAAAHHHHHH
B10: no binding (tested: neat supernatant) [1].

B11: humanised anti-TnMUC1 scFv L2-H2 (construct 6D15) (scFv)
scFv: DIVMTQSPDSLAVSLGERATINCKSSQSLLNSGDQKNYLTWYQQKPGQPPKLLIFWASTRESGVPDRFSGSGSGTDFTLTISSLQAEDVAVYYCQNDYSYPLTFGQGTKLEIKGGGGSGGGGSGGGGSGGGGSQVQLVQSGAEVKKPGSSVKVSCKASGYTFTDHAIHWVRQAPGQGLEWIGHFSPGNTDIKYNDKFKGRATLTVDRSTSTAYMELSSLRSEDTAVYYCARSTFFFDYWGQGTTVTVSSAAAHHHHHH
B11: no binding (tested: neat supernatant) [1].

B12: humanised anti-TnMUC1 scFv L3-H2 (construct 6D21) (scFv)
scFv: ELVMTQSPDSLAVSLGERATINCKSSQSLLNSGDQKNYLTWYQQKPGQPPKLLIFWASTRESGVPDRFSGSGSGTDFTLTISSLQAEDVAVYYCQNDYSYPLTFGQGTKLEIKGGGGSGGGGSGGGGSGGGGSQVQLVQSGAEVKKPGSSVKVSCKASGYTFTDHAIHWVRQAPGQGLEWIGHFSPGNTDIKYNDKFKGRATLTVDRSTSTAYMELSSLRSEDTAVYYCARSTFFFDYWGQGTTVTVSSAAAHHHHHH
B12: no binding (tested: neat supernatant) [1].

B13: humanised anti-TnMUC1 scFv L0-H4 (construct 6D5) (scFv)
scFv: DIVMTQSPDSLAVSLGERATINCKSSQSLLNSGDQKNYLTWYQQKPGQPPKLLIYWASTRESGVPDRFSGSGSGTDFTLTISSLQAEDVAVYYCQNDYSYPLTFGQGTKLEIKGGGGSGGGGSGGGGSGGGGSQVQLVQSGAEVKKPGSSVKVSCKASGYTFTDHAIHWVRQAPGQGLEWMGHFSPGNTDIKYNDKFKGRVTITADKSTSTAYMELSSLRSEDTAVYFCARSTFFFDYWGQGTTVTVSSAAAHHHHHH
B13: no binding (tested: neat supernatant) [1].

B14: humanised anti-TnMUC1 scFv protein 9P1 (88A), VL-VH humanised control (scFv)
scFv: DIVMTQSPDSLAVSLGERATINCKSSQSLLNSGDQKNYLTWYQQKPGQPPKLLIYWASTRESGVPDRFSGSGSGTDFTLTISSLQAEDVAVYYCQNDYSYPLTFGQGTKVEIKGGGGSGGGGSGGGGSGGGGSQVQLVQSGAEVKKTGSSVKVSCKASGYTFTDHAIHWVRQAPGQALEWMGHFSPGNTDIKYNDKFKGRVTLTVDRSMSTAYMELSSLRSEDTAMYYCKTSTFFFDYWGQGTMVTVSSAAAHHHHHH
notes: Control scFv designed from a humanised antibody of WO2015/159076 (10D2 is said to come from Ab2, so 10D1 by implication from Ab1); Neat supernatant of construct 10D1 in the Octet assay; purified protein 9P1 in Biacore and flow cytometry; also called 10D1
B14 was tested, and the binding result [1] was “no binding (tested: neat supernatant)”, the Kd [2] was 23 nM and the koff [2] was 0.00156 s⁻¹. The kon [2] was 67800 M⁻¹ s⁻¹, the Kd [3] was 22.8 nM and 23.3 nM and the koff [3] was 0.00157 s⁻¹ and 0.00153 s⁻¹. For the same binder, the kon [3] was 68800 M⁻¹ s⁻¹ and 65900 M⁻¹ s⁻¹ and the Kd [4] was 23 nM.

B15: humanised anti-TnMUC1 scFv protein 13P24 (77A), L3-H5 (scFv)
scFv: ELVMTQSPDSLAVSLGERATINCKSSQSLLNSGDQKNYLTWYQQKPGQPPKLLIFWASTRESGVPDRFSGSGSGTDFTLTISSLQAEDVAVYYCQNDYSYPLTFGQGTKLEIKGGGGSGGGGSGGGGSGGGGSQVQLVQSGAEVKKPGSSVKVSCKASGYTFTDHAIHWVRQAPGQGLEWIGHFSPGNTDIKYNDKFKGRATLTVDRSTSTAYMELSSLRSEDTAVYFCKTSTFFFDYWGQGTTVTVSSAAAHHHHHH
notes: Two purification lots (13P24, 28P24); also called 28P24; 6D24
With B15 the binding result [5] was “no binding (tested: 500 nM)”, the Kd [2] was 46.4 nM and the koff [2] was 0.00133 s⁻¹. For the same binder, the kon [2] was 28700 M⁻¹ s⁻¹, the Kd [3] was 46.4 nM and the koff [3] was 0.00133 s⁻¹. The kon [3] was 28700 M⁻¹ s⁻¹ and the Kd [4] was 46.4 nM.
